Legend:
[1] = molecular target: claudin 18.2 (CLDN18.2) (human); assay: in-cell ELISA on HEK293-CLDN18.2 cells
[2] = molecular target: claudin 18.1 (CLDN18.1) (human) (UniProt P56856); assay: in-cell ELISA on HEK293-CLDN18.1 cells
claudin 18.1 (CLDN18.1) (human), sequence (P56856 whole entry): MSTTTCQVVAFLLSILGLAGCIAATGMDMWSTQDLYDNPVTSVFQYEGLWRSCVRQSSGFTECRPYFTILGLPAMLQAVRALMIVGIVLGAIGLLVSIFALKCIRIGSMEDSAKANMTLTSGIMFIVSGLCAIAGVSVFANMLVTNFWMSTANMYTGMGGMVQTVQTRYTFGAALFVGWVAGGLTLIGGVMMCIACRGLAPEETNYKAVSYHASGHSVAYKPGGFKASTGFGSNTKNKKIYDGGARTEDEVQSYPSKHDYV

OD450/µg IgG [1]: 3.23 OD450/µg IgG
OD450/µg IgG [2]: 1.54 OD450/µg IgG
Substance: mouse IgG (control) (antibody)
